{"source": "paper PMC3923860", "tested_on": "H1-CΔ97 (histone H1o lacking C-terminal domain) (mouse)", "test": "EMSA", "settings": "no competitor DNA; EMSA: 50 mM NaCl, 25 mM Tris-HCl pH 7.5, 1 mM EDTA, 1 mM DTT, 100 ug/ml acetylated BSA, 3% glycerol; 30 min on ice; gels 0.5x TBE, 4 C"}
{"substance": "hemicatenated DNA loops (hcDNA)", "values": [{"measurement": "Kd", "value": 0.035, "unit": "µM"}]}
